Results taken from the nanobody polyreactivity screen of Harvey et al. (2022).

Experiment: yeast display, Sf9 membrane polyspecificity reagent, FACS + sequencing; frameworks hold sequencing errors
Procedure, shortened: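 Galactose induction of a Saccharomyces cerevisiae BJ5465 synthetic nanobody display library ran 36–48 hours. The cells were then stained for 1 hour at 4 °C with 10% biotinylated, detergent-solubilized Sf9 membrane reagent, pulled down on streptavidin microbeads and FACS-sorted into low and high (top ~1%) gates on expression and reagent-binding fluorescence. Labels for polyreactivity follow the gate of origin.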

## QVQQQESGGGLVQAGGSLRLSCAASGTIFQLTVMGRYRQAPGKERQLVASIDYGGNTNYADSVKGRFTISRDNAKNTVYLQMNSLKPEDTAVYYCAASSDSWTTHPYWGQGTQVTVSS
  polyreactivity (PSR sort gate): low polyreactivity

## QVQLVESGGGLVQAGGSLRLSCAASGFTFGINAKGWYRQAPGKERELVAALSWSGGSTYYADSVKGRFTISRDNAKNTVYLQMNSLKPEDTAVYYCAVVWFSLWYKGSTFNRYDYWGQGTQVTVSS
  polyreactivity (PSR sort gate): low polyreactivity

## QFQLVESGGGLVQAGGSLRLSCAASGRIFRRYTMGWYRQAPGKERELVATITWDGVSTYYADSVKGRFTISRDNAKNTVYLQMNSLKPEDTAVYYCNVDVYYYVLSYQYDYWGQGTQVTVSS
  polyreactivity (PSR sort gate): high polyreactivity

## QVQLVESGGGLVQAGGSLRLSCAASGSIFFINAMGWYRQAPGKERELVAAISSGGTTYYADSVKGRFTISRDNAKNTVYLQMNSLKPEDTAVYYCNAAGFPYAHTFFKGLVEYDSWGQGTQVTVSS
  polyreactivity (PSR sort gate): low polyreactivity

## QVQLVESGGGLVQAGGSLRLSCAASGFIFRYYAMGWYRQAPGKERELVAAISGSGGGTYYADSVKGRFTISRDNAKNTVYLQMNSLKPEDTAVYYCAAGSTSGYFRYYYWGQGSQVTVSS
  polyreactivity (PSR sort gate): high polyreactivity

## QVQHVESGGGLVQAGGSLRLSCAASGRILVSYAMGWYRQAPGKERELVAAISRSGGSTYYADSVKGRFTISRDNAKNTVYLQMNCLKPEDTAVYYCATGLYIQSTYHRYERYNYWGQGTQVTVSS
  polyreactivity (PSR sort gate): high polyreactivity

## QFQLVESGGGLVQAGGSLRLSCAASGFTFRKYAMGWYRQAPGKERELVAAIRSTGRSNYADSVKGRFTISRDNAKNTVYFQMNSLKPVDTAVYYFNVDLTYYYYEVDYWGQGTQVTVSS
  polyreactivity (PSR sort gate): high polyreactivity

## QVQLVESGGGLVQAGGSLRLSCAASGIIFEYYAMGWYRQAPGKERELVAAITRGGSTYYADSVKGRFTISRDNAKNTVYLQMNSLKAEDTAVYYCAADRYYYEYDYWGQGTQVTVSS
  polyreactivity (PSR sort gate): low polyreactivity

## QVQLVESGGGLVQAGGRLRLSCAASGSIFAYYAMGSYRQAPGKERELVAAISSSGGSTTYADSVKGRFTISRDNAKYTVYLQMNSLKPDDTAVYYCNAAWRRSRYYNWGQGTQVTVSS
  polyreactivity (PSR sort gate): high polyreactivity

## QVQLVESGGGLVQAGGSLRLSCAASGSIFYNNVMGWYRQAPGKERELVAVISGGGSTNYADSVKGRFTISRDNAKNNVYLHMNSLKREDTAVYYCAARGRYSYGDRYEYWGQATQVTVSS
  polyreactivity (PSR sort gate): low polyreactivity

## QVQLVESGGGLVQAGGSLRLSCAASGSTFSSYVMGWYRQAPGKERELVAGITRGGRTYYADSVKGRFTISRDNAKNTVYLQMNSLKPEDTAVYYCNARDGVTTEFDYWGQGTQVTVSS
  polyreactivity (PSR sort gate): low polyreactivity

## QVQLVESGGGLVQAGGSLRLSCAASGRTFGFYAMGWYRQAPGKERELVAAIRGSIGNTYYADSVKGRFTISRDNAKNTVYLQMNSLKPEDTAVYYCAKAIRYPSAKFYWGQGTQVTVSS
  polyreactivity (PSR sort gate): high polyreactivity

## QVQLVESGGGLVQAGGSLRLSCAASGSTFYANAMGWYRQAPGKERELVAAISWRGGSTYYADSVKGRFTISRDNAKNTVYLQMNSLKPEDTAVYYCNRVQRYIRHGDYWGQGTQVTVSS
  polyreactivity (PSR sort gate): high polyreactivity

## QVQLVESGGGLVQAGGSLRLSCAASGGIFYINAMGWYRQAPGKERELVAAISRDGTITYYADSVKGRFTISRDNAKNTVYLQMNSLKPEDTAVYYCAADASIQSWYSIYDYWGQGTQVTVSS
  polyreactivity (PSR sort gate): high polyreactivity

## QVQLVESGGGLVQAGGSLRLSCAASRSIFYRYAMGWYRQEPGKERELVAAISRSGGTTYYADSVKGRFTISRDNAKNTVYLQMNSQKPEDTAVYYCAARVFHPYSTDPFYYWGQGTQVTVSS
  polyreactivity (PSR sort gate): high polyreactivity

## QVQLVESGKGLVQAGGILRLSCAASGLIFGFNAMGWYRQAPGKERELVAAIYGSGGTTYYADSVKGRFTISRDNAKNTVYLQMNSLKPEDTAVYYCAGEYIYNVQFSWPKTPAFDYWGQGTLVTVSS
  polyreactivity (PSR sort gate): low polyreactivity

## QVQLVESGGGLVQAGGSLRLSCAASGSNFDYYAMGWYRQAPGKERELVAAISSTDGSTFYADSVKGRFTISRDNAKNTVYLQMNSLKPEDTAVYYCAVVGYYYPWPNGYDYWGQGTQVTVSS
  polyreactivity (PSR sort gate): low polyreactivity

## QVHLVQSGGGIDQAGGSLRLSCAASGSTYVVNTMGWYRQAPGKDRELVAANTQSGGSTFYADSVKGRFTISRDNAKNTVYLHMTSLKAEDTAVYYCNAGDFEGAVVVFIQHGGYYWGQGTQVTVSS
  polyreactivity (PSR sort gate): low polyreactivity

## QVQLVESGGGLVQAGGSLRLSCAASGSTVYYNAMGWYRQAPGKERELVAAISRSGGRTYYADSVKGRFTISRDNAKNTVYLQMNSLKPEDTAVYYCAADAPGHEYYYWGQGTQVTVSS
  polyreactivity (PSR sort gate): high polyreactivity

## QVQLVESGGCLVQAGGSLRLSCAASGFIFPPNAMGWYRQAPGKERELVASISSSGGSTYYADSVKGRFTISRDNAKNTVYLQMNSLKPEDTAVYYCAADWFYGWGKYDYWGQGTQVTVSS
  polyreactivity (PSR sort gate): low polyreactivity

## QVQLVESGGGLVQAGGSLRLSCAASGITFHKYAMGWYRQAPGKERELVAAISSGGGTYYADSVKGRFTISRDNAKNTVYLQMNSLKPEDTAVYYCNADIEWLWVRYDYWGQGTQVTVSS
  polyreactivity (PSR sort gate): high polyreactivity

## QVQLVESGGGLVQAGGSLRLSCAASGSIITYYAMGWYRQAPGKDSELVAVISASGGRTYYADSVKGRFTISRDNAKNTVYLQMISLKPEDTAVYYCAAYQSIYSFKFGYWGQGTQVTVSS
  polyreactivity (PSR sort gate): high polyreactivity

## QVQLVESGGGLVQAGGSLRLSCAASGYIFGWYTMGWYRQAPGKEREFVASISNSDASTYYADSVKGRFTISRDNAKNTVYLQMNSLKPEDTAVYYCAADTTYWHWIYYYWGQGTQVTVSS
  polyreactivity (PSR sort gate): low polyreactivity

## QVQLVESGGGLVQAGGSLRLSCAASGRTFESYAMGWYRQAPGKERELVAAITSTDDRTYYADSVKGRFTISRDNAKNTVYLQMNSLKPEDTAVYYCAVESRRDDFEYDYWGQGTQVTVSS
  polyreactivity (PSR sort gate): low polyreactivity

## QVQLVESGGGLGQAGGRLRLSCAASGSIFRRNAMGWYRQAPGKERELVAGISGGGSTYYADSVKGRFTISRDNAKNTVYLQMYSLKPEDTAVYYCATDKHYRWAGFDYWGQGTQVTVSS
  polyreactivity (PSR sort gate): low polyreactivity

## QVQLVESGGGLVQAGGSLRLSCAASGITFGAYTMGWYRQAPGKERELVAAISGSGGSTYYADSVKGRFTISRDNAKNTVYLQMNSLKPEDTAVTYCNKVLSPHLGCSFDYWGQGTEVTVSS
  polyreactivity (PSR sort gate): high polyreactivity

## QVQLVESGGGLDQAGGSLRLICADSGSIFYIYAMGWYIHAPGKETELVASISGSGSTYYADSVKGRFRISRDNAKNTVYLQMNSLKPEDTAVYYCAVELWRVWGAYSYTYDYWGQGTQVTVSS
  polyreactivity (PSR sort gate): high polyreactivity

## QGQLVESGGGLVQAGGSLRLSCAASGSTSGKNAMGWYRQAPGQERELVAVITYSGSRTYYADSVKGRFTISRDNAKNTVYLQMNSLKPEDTAVYYCATRGLKTYQAYDYWGQGTQVTVSS
  polyreactivity (PSR sort gate): high polyreactivity

## QVQLVESGGGLVQAGGSLRLSCAASGSIFGKYAMGWYRQAPGKERELVAAITIRGGSTYYADSVKGRFTISRDNAKNTVYLQMNSLKPEDTAVYYCNAVSKYYFGVDYWGQGTQVTVSS
  polyreactivity (PSR sort gate): high polyreactivity

## QVQLVESGGGLVQAGGSLRLSCAASGYIINYNAMGWYRQAPGKERELVAAISSRGGSTYYADSVKGRFTISRDNAKNTVYLQMNSLKPEDTAVYYCNARYYSWYQRYDRRRGYDYWGQGTQVTVSS
  polyreactivity (PSR sort gate): low polyreactivity

## QVQLVESGGGLVQAGGSLRLSCAASGSTMRFYAMGWYRQAPGKERELVAAISSSGSSTYYADSVKGRFTISRDNAKNTVYLQMNSLKPEDTAVYYCSGYGYWGQGTQLTVSS
  polyreactivity (PSR sort gate): high polyreactivity

## QVQLVQSGGGLVQAGGSLSLICAASGRIFGYYAMGWYRQAPGKERELVDTITFGGGSTYYADSVKGRFTISRDNAKNTVYLQMNSLKPEDTAVYYCAADCGYLGIYGDEYSWGQGTQVTVSS
  polyreactivity (PSR sort gate): low polyreactivity
